According to the supplement of paper PMC7125110:
± gives the standard error. Variants at the floor of the assay were thinned out.

B1: glmS ribozyme (parent)
chain: AUAAAAGCGCCAGAACUACAGAAAUGUAGUUGACGAGGAGGAGGUUUAUCGAAUUUUCGGCGGAUGCCUCCAAA

What was measured:
Settings in all cases: with glucosamine-6-phosphate
[1] = variants of: B1; assay: self-cleavage kobs at 40 uM GlcN6P; higher = faster cleavage; RNA array
Summary of the method: (§1)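 Weighted Michaelis–Menten fits across concentrations supplied kcat and KM, based on kobs from one- or two-exponential decay fits to normalised per-tile medians. The data came from barcoded ribozyme variants transcribed in situ by E. coli RNA polymerase on sequenced MiSeq chips and tracked at 37 °C by a hybridised Cy3 probe. Glucosamine-6-phosphate (40 μM to 10 mM) in HEPES/KCl/Mg(OAc)2 buffer was flowed in.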

[2] = variants of: B1; assay: self-cleavage kobs at 10000 uM GlcN6P; higher = faster cleavage; RNA array
Summary of the method: as §1

[3] = variants of: B1; assay: self-cleavage kobs at 160 uM GlcN6P; higher = faster cleavage; RNA array
Summary of the method: as §1

[4] = variants of: B1; assay: self-cleavage kobs at 640 uM GlcN6P; higher = faster cleavage; RNA array
Summary of the method: as §1

[5] = variants of: B1; assay: self-cleavage kobs at 2500 uM GlcN6P; higher = faster cleavage; RNA array
Summary of the method: as §1

Variant | self-cleavage kobs at 40 uM GlcN6P [1] [s⁻¹] | self-cleavage kobs at 10000 uM GlcN6P [2] [s⁻¹] | self-cleavage kobs at 160 uM GlcN6P [3] [s⁻¹] | self-cleavage kobs at 640 uM GlcN6P [4] [s⁻¹] | self-cleavage kobs at 2500 uM GlcN6P [5] [s⁻¹]
C11G G62C A64G C68G | < 1e-05 | < 1e-05 |  |  | 
G41A G59A | < 1e-05 |  | < 1e-05 |  | 
C16U A39C C68A | < 1e-05 | < 1e-05 |  |  | 
A15C G32U A42U | < 1e-05 | < 1e-05 |  |  | 
C10U G13A C67A | < 1e-05 | < 1e-05 |  | < 1e-05 | 
G29C A36U A39G G63U | < 1e-05 | < 1e-05 |  |  | 
A12U A14G | 0.00336 ± 0.00044 |  | 0.00737 ± 0.0027 | 0.0265 ± 0.0078 | 
A12U A52G C67U | 7.05e-05 ± 1.6e-05 | 0.00179 ± 0.00037 |  |  | 
C8G G51U A64G | < 1e-05 | < 1e-05 |  |  | 
C10U G59C | < 1e-05 | < 1e-05 | < 1e-05 | < 1e-05 | 
G13C U49G G60U C70G | < 1e-05 |  |  |  | 
G40A G60A U69A | < 1e-05 |  |  |  | 
G9C G43A | < 1e-05 | < 1e-05 |  |  | 
A36G A39U C68U | < 1e-05 | < 1e-05 |  |  | 
A6G A14G G29C G38A A39G G40A A42U U54C U56A G60C | < 1e-05 |  |  |  | 
A12U U47G | 0.000706 ± 0.0001 | 0.0118 ± 0.002 |  |  | 0.0123 ± 0.0039
U45A C70G | 0.000107 ± 4.1e-05 | 0.000826 ± 0.00032 | 0.000105 ± 3.6e-05 | 0.000198 ± 7.9e-05 | 0.00053 ± 0.00019
G7C G37U U47C G59U G66U C70U | < 1e-05 | < 1e-05 | < 1e-05 |  | 
C8A G37A | < 1e-05 | < 1e-05 |  |  | 
C34G U45G C70A | < 1e-05 | < 1e-05 | < 1e-05 |  | < 1e-05
U30C G59C | < 1e-05 | < 1e-05 |  | < 1e-05 | < 1e-05
C16G G59C | < 1e-05 | < 1e-05 | < 1e-05 | < 1e-05 | < 1e-05
C8A C67G C68G | 5.09e-05 ± 1.9e-05 | 4.91e-05 ± 1.2e-05 |  | 0.000231 ± 5.6e-05 | 
G40U U49C | < 1e-05 | < 1e-05 | < 1e-05 | < 1e-05 | 

Variant | self-cleavage kobs at 40 uM GlcN6P [1] [s⁻¹] | self-cleavage kobs at 10000 uM GlcN6P [2] [s⁻¹] | self-cleavage kobs at 160 uM GlcN6P [3] [s⁻¹] | self-cleavage kobs at 640 uM GlcN6P [4] [s⁻¹] | self-cleavage kobs at 2500 uM GlcN6P [5] [s⁻¹]
A14C G43C | < 1e-05 |  |  | < 1e-05 | < 1e-05
C10G G40A | < 1e-05 | < 1e-05 |  | < 1e-05 | < 1e-05
G13U C50G C61G | 8.16e-05 ± 1.3e-05 | 0.000116 ± 1.9e-05 |  |  | 
G35A U45A C71A | < 1e-05 |  |  |  | 
C16A A42U | < 1e-05 |  | < 1e-05 |  | 
G38U A42C | < 1e-05 | < 1e-05 | < 1e-05 |  | 
G38U A64G | < 1e-05 |  |  |  | < 1e-05
G7U G62U | < 1e-05 |  | < 1e-05 | < 1e-05 | < 1e-05
A6U G29A G63U | < 1e-05 |  |  |  | 
G32U G41A G66C C68G | < 1e-05 | < 1e-05 | < 1e-05 |  | < 1e-05
G7U A33G | < 1e-05 |  | < 1e-05 | < 1e-05 | < 1e-05
G9C G41C | < 1e-05 | < 1e-05 | < 1e-05 | < 1e-05 | < 1e-05
C8U A52U C58U A64C C70U | < 1e-05 |  | < 1e-05 |  | < 1e-05
U57C G59U C61U | < 1e-05 | < 1e-05 |  |  | 
A12G A33G U57G | < 1e-05 |  |  |  | 
A15C G29A G60A | < 1e-05 |  |  |  | 
A33G U45A C50G U54G G60A C67A | 0.000354 ± 9.5e-05 | 0.000164 ± 5.5e-05 |  |  | 
U65C C70A | < 1e-05 |  | < 1e-05 |  | 
G38U G66C | < 1e-05 |  |  | < 1e-05 | 
G38A G41C G43U | < 1e-05 |  |  |  | 
C11G A48U G63C | < 1e-05 | < 1e-05 |  |  | 
C10A C16G U31G G38A C61U | < 1e-05 | < 1e-05 |  |  | 
U30A A33G A48C C67A | < 1e-05 | < 1e-05 |  |  | 
G43U G44A | < 1e-05 | < 1e-05 | < 1e-05 | < 1e-05 | < 1e-05

Variant | self-cleavage kobs at 40 uM GlcN6P [1] [s⁻¹] | self-cleavage kobs at 10000 uM GlcN6P [2] [s⁻¹] | self-cleavage kobs at 160 uM GlcN6P [3] [s⁻¹] | self-cleavage kobs at 640 uM GlcN6P [4] [s⁻¹] | self-cleavage kobs at 2500 uM GlcN6P [5] [s⁻¹]
G32C C34U | < 1e-05 | < 1e-05 | < 1e-05 | < 1e-05 | < 1e-05
U46G U54C | 0.00019 ± 3.4e-05 | 0.00687 ± 0.0018 |  |  | 
G62U C67G | < 1e-05 | < 1e-05 |  | < 1e-05 | 
A12U U30G U56G | 0.000609 ± 0.00013 | 0.0339 ± 0.0098 |  |  | 
C8U A14G G37A A39U G40U U47A C58G U65G C70U | < 1e-05 |  |  |  | < 1e-05
U54G C67A | 0.000326 ± 7.1e-05 | 0.00623 ± 0.0012 | 0.000481 ± 9.8e-05 | 0.000916 ± 0.00018 | 0.00208 ± 0.00067
G9C U56G | < 1e-05 | < 1e-05 | < 1e-05 | < 1e-05 | < 1e-05
A12G C16A U30G A36G | < 1e-05 |  |  |  | 
A33U A36C A39C G41C G44A U46G G51U C58U A64U | < 1e-05 | < 1e-05 |  |  | 
C11A A14U A15G G29A G44U C61A | < 1e-05 | < 1e-05 |  | < 1e-05 | < 1e-05
G7U A53G U69G | 8.14e-05 ± 2.1e-05 | 9.89e-05 ± 2e-05 |  | 0.000822 ± 0.00023 | 9.39e-05 ± 3.9e-05
G38A C50U A53G G62U | < 1e-05 |  |  |  | 
A12U G62C | < 1e-05 | < 1e-05 | < 1e-05 | < 1e-05 | < 1e-05
C8G U55A | < 1e-05 | < 1e-05 |  | < 1e-05 | < 1e-05
G13U C50A | < 1e-05 |  |  |  | 
A12U C50G G59U U69C | 0.000143 ± 4.1e-05 | 0.000187 ± 4.7e-05 |  |  | 8.19e-05 ± 3e-05
A52G C61U | < 1e-05 |  | < 1e-05 |  | < 1e-05
C10A A36U | < 1e-05 | < 1e-05 | < 1e-05 | < 1e-05 | < 1e-05
C16G C34U G59A G60U | < 1e-05 |  |  |  | 
C8A U31A | < 1e-05 |  |  |  | 
A15G U30G A33G A48C | < 1e-05 |  |  |  | 
C11A A39G U45A A52U | < 1e-05 |  |  |  | 
A12G A15G A53C C67G | < 1e-05 |  |  |  | 
A14U A33C G35C U55C | < 1e-05 | < 1e-05 |  |  | 

Variant | self-cleavage kobs at 40 uM GlcN6P [1] [s⁻¹] | self-cleavage kobs at 10000 uM GlcN6P [2] [s⁻¹] | self-cleavage kobs at 160 uM GlcN6P [3] [s⁻¹] | self-cleavage kobs at 640 uM GlcN6P [4] [s⁻¹] | self-cleavage kobs at 2500 uM GlcN6P [5] [s⁻¹]
A6U G43A U45G U57A G59U | < 1e-05 | < 1e-05 |  |  | 
C10G G13A | < 1e-05 |  | < 1e-05 | < 1e-05 | 
C8A A15G | < 1e-05 | < 1e-05 | < 1e-05 | < 1e-05 | < 1e-05
G32U A48U C61U G63U C67U | < 1e-05 | < 1e-05 |  | < 1e-05 | 
U45G U57C | < 1e-05 | 7.89e-05 ± 9.7e-06 | < 1e-05 |  | 3.94e-05 ± 1.4e-05
A6G G38U U54C | < 1e-05 |  |  | < 1e-05 | < 1e-05
A33U U47A U54C | < 1e-05 | 7.82e-05 ± 1.8e-05 |  |  | 4.24e-05 ± 2e-05
A36G U45C U56A | < 1e-05 |  |  |  | 
A15G A42G C68U | 0.000393 ± 0.00011 | 0.0101 ± 0.0045 |  |  | 
A12U U65A C67A | 6.19e-05 ± 1.3e-05 | 0.000114 ± 2e-05 |  |  | 
A15C A36C C71U | < 1e-05 | < 1e-05 |  |  | 
A6C G44C | < 1e-05 | < 1e-05 | < 1e-05 | < 1e-05 | 
C8U G32C | < 1e-05 | < 1e-05 | < 1e-05 | < 1e-05 | < 1e-05
C8G U31C G35C | < 1e-05 | < 1e-05 |  |  | 
A42G G63U | < 1e-05 |  | < 1e-05 | < 1e-05 | < 1e-05
A15G C50A A64G | < 1e-05 |  |  |  | 
G41U U55G C68U C70U | < 1e-05 |  |  |  | 
A42U G63A | < 1e-05 | < 1e-05 |  | < 1e-05 | 
C50A A64G C71U | < 1e-05 |  |  |  | 
C34A C50G C71U | 6.66e-05 ± 3e-05 | 6.4e-05 ± 2.5e-05 | 0.000155 ± 6.7e-05 | 0.000408 ± 0.0001 | 0.000247 ± 0.00012
A48U G62U | < 1e-05 | < 1e-05 | < 1e-05 | < 1e-05 | < 1e-05
C11G G44U A48C C50A G59U G62C | < 1e-05 | < 1e-05 |  |  | 
A12G A48G G63A A64G | < 1e-05 | < 1e-05 |  |  | 
G51A A52C | < 1e-05 | < 1e-05 | < 1e-05 |  | 
